Laboratory results: PMC3084762, “Distinct Properties of Hexameric but Functionally Conserved Mycobacterium tuberculosis Transcription-Repair Coupling Factor” (PLoS ONE, 2011)

B1: Mycobacterium tuberculosis Mfd (transcription-repair coupling factor), full length, His-tagged (natural protein)
chain: MTAPGPACSDTPIAGLVELALSAPTFQQLMQRAGGRPDELTLIAPASARLLVASALARQGPLLVVTATGREADDLAAELRGVFGDAVALLPSWETLPHERLSPGVDTVGTRLMALRRLAHPDDAQLGPPLGVVVTSVRSLLQPMTPQLGMMEPLTLTVGDESPFDGVVARLVELAYTRVDMVGRRGEFAVRGGILDIFAPTAEHPVRVEFWGDEITEMRMFSVADQRSIPEIDIHTLVAFACRELLLSEDVRARAAQLAARHPAAESTVTGSASDMLAKLAEGIAVDGMEAVLPVLWSDGHALLTDQLPDGTPVLVCDPEKVRTRAADLIRTGREFLEASWSVAALGTAENQAPVDVEQLGGSGFVELDQVRAAAARTGHPWWTLSQLSDESAIELDVRAAPSARGHQRDIDEIFAMLRAHIATGGYAALVAPGTGTAHRVVERLSESDTPAGMLDPGQAPKPGVVGVLQGPLRDGVIIPGANLVVITETDLTGSRVSAAEGKRLAAKRRNIVDPLALTAGDLVVHDQHGIGRFVEMVERTVGGARREYLVLEYASAKRGGGAKNTDKLYVPMDSLDQLSRYVGGQAPALSRLGGSDWANTKTKARRAVREIAGELVSLYAKRQASPGHAFSPDTPWQAELEDAFGFTETVDQLTAIEEVKADMEKPIPMDRVICGDVGYGKTEIAVRAAFKAVQDGKQVAVLVPTTLLADQHLQTFGERMSGFPVTIKGLSRFTDAAESRAVIDGLADGSVDIVIGTHRLLQTGVRWKDLGLVVVDEEQRFGVEHKEHIKSLRTHVDVLTMSATPIPRTLEMSLAGIREMSTILTPPEERYPVLTYVGPHDDKQIAAALRRELLRDGQAFYVHNRVSSIDAAAARVRELVPEARVVVAHGQMPEDLLETTVQRFWNREHDILVCTTIVETGLDISNANTLIVERADTFGLSQLHQLRGRVGRSRERGYAYFLYPPQVPLTETAYDRLATIAQNNELGAGMAVALKDLEIRGAGNVLGIEQSGHVAGVGFDLYVRLVGEALETYRDAYRAAADGQTVRTAEEPKDVRIDLPVDAHLPPDYIASDRLRLEGYRRLAAASSDREVAAVVDELTDRYGALPEPARRLAAVARLRLLCRGSGITDVTAASAATVRLSPLTLPDSAQVRLKRMYPGAHYRATTATVQVPIPRAGGLGAPRIRDVELVQMVADLITALAGKPRQHIGITNPSPPGEDGRGRNTTIKERQP
notes: also called MtbMfd; His-tagged MtbMfd; not shown: His tag, N-terminal, kept
B2: MtbMfd, endogenous in M. tuberculosis H37Ra cell lysate (natural protein)
chain: B1 chain
B3: purified untagged or native MtbMfd (natural protein)
chain: B1 chain
notes: also called untagged MtbMfd

What was measured:
[1] = target: T1, NTD of MtbMfd (Mycobacterium tuberculosis, UniProt P9WMQ5)
T1 construct: gene mfd

[2] = target: the molecule itself; experiment: dynamic light scattering
[3] = target: the molecule itself; experiment: SEC

| Molecule | Ksv [1] | stoichiometry N [2] | stoichiometry N [3] |
| --- | --- | --- | --- |
| Nc1ncnc2c1ncn2[C@@H]1O[C@H](COP(=O)(O)OP(=O)(O)OP(=O)(O)O)[C@@H](O)[C@H]1O [ATP] | 526 µM | – | – |
| B1 | – | ~6 | 6 |
| B2 | – | – | 6 |
| B3 | – | – | 6 |
